Data reported in publication PMC3212511.

Tests used:
[1] = molecular target: human desmin (assembled into filaments in vitro) (human) (UniProt P17661); test: low-speed sedimentation assay; desmin alone assembled at 22°C; 2,500 g, 10 min, 20°C; pellets only filaments associated with each other (filament-filament interactions); SDS-PAGE densitometry
[2] = molecular target: human desmin (assembled into filaments in vitro) (human) (UniProt P17661); test: low-speed sedimentation assay; desmin alone assembled at 37°C; 2,500 g, 10 min, 20°C; pellets only filaments associated with each other (filament-filament interactions); SDS-PAGE densitometry
[3] = molecular target: human desmin (assembled into filaments in vitro) (human) (UniProt P17661); test: low-speed sedimentation assay; desmin alone assembled at 44°C; 2,500 g, 10 min, 20°C; pellets only filaments associated with each other (filament-filament interactions); SDS-PAGE densitometry

“human desmin (assembled into filaments in vitro) (from UniProt P17661 1-470) (natural protein)” was tested, and the % of desmin in the low-speed pellet (filament-filament interactions) [1] was 24%, the % of desmin in the low-speed pellet (filament-filament interactions) [2] was 45% and the % of desmin in the low-speed pellet (filament-filament interactions) [3] was 61%.
